Measured values taken from paper PMC10234888, “Upregulation of glycolytic enzyme PFKFB3 by deubiquitinase OTUD4 promotes cardiac fibrosis post myocardial infarction” (Journal of Molecular Medicine (Berlin, Germany), 2023).

Biological target: T1, OTUD4 human recombinant protein (human, UniProt Q01804 1-1114)
T1 construct: deubiquitinase OTUD4, human, recombinant protein from Origene; No catalogue number is printed; also called deubiquitinase OTUD4; source: bought: Origene Technologies, Inc
T1 sequence (looked up): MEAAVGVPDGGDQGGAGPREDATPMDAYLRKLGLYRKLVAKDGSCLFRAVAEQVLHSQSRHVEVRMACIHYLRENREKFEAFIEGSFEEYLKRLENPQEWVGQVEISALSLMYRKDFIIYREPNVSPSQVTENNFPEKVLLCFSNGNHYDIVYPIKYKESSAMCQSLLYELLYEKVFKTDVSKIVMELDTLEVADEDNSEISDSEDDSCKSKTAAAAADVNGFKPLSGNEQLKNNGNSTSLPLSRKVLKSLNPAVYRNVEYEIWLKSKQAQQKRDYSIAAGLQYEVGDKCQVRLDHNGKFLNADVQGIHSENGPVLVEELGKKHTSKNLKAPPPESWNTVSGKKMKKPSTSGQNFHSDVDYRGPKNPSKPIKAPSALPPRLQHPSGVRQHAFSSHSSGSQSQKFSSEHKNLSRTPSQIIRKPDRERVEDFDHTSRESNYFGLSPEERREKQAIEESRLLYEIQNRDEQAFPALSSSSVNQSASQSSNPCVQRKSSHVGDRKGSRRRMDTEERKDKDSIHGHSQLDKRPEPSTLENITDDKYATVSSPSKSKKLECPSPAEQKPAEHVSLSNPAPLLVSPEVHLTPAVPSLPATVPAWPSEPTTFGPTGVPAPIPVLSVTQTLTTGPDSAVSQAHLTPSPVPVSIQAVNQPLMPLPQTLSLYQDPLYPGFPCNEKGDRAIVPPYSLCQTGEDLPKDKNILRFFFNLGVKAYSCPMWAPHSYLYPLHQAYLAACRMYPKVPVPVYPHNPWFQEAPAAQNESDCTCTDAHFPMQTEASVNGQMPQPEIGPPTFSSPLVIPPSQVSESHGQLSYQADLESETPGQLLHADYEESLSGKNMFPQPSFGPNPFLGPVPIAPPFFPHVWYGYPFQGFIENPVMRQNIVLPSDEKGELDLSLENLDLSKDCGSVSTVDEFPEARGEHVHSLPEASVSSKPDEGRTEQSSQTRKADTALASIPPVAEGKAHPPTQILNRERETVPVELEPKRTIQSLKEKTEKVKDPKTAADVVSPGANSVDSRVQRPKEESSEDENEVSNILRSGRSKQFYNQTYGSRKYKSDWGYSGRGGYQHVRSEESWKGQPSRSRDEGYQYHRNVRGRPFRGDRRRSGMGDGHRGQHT
Assay: SPR; Biacore T200; OTUD4 on a CM5 chip by amine coupling; various concentrations of PFKFB3 injected over the OTUD4 surface
Details: both partners purified

- Kd: 250 nM
B1: human recombinant PFKFB3 protein (enzyme, UniProt Q16875 1-520, looked up)
chain: MPLELTQSRVQKIWVPVDHRPSLPRSCGPKLTNSPTVIVMVGLPARGKTYISKKLTRYLNWIGVPTKVFNVGEYRREAVKQYSSYNFFRPDNEEAMKVRKQCALAALRDVKSYLAKEGGQIAVFDATNTTRERRHMILHFAKENDFKAFFIESVCDDPTVVASNIMEVKISSPDYKDCNSAEAMDDFMKRISCYEASYQPLDPDKCDRDLSLIKVIDVGRRFLVNRVQDHIQSRIVYYLMNIHVQPRTIYLCRHGENEHNLQGRIGGDSGLSSRGKKFASALSKFVEEQNLKDLRVWTSQLKSTIQTAEALRLPYEQWKALNEIDAGVCEELTYEEIRDTYPEEYALREQDKYYYRYPTGESYQDLVQRLEPVIMELERQENVLVICHQAVLRCLLAYFLDKSAEEMPYLKCPLHTVLKLTPVAYGCRVESIYLNVESVCTHRERSEDAKKGPNPLMRRNSVTPLASPEPTKKPRINSFEEHVASTSAALPSCLPPEVPTQLPGQNMKGSRSSADSSRKH
notes: phosphofructokinase-2/fructose-2,6-bisphosphatase 3 (PFKFB3), human, recombinant protein from Origene; No catalogue number is printed; also called phosphofructokinase-2/fructose-2,6-bisphosphatase 3; source: bought: Origene
